According to the supplement of paper PMC10567573:

B1: RHOBTB2 (parent)
chain: LYTGELDENERDLMHIAHIAELLE
B2: SAT2 (parent)
chain: GYGIYYFIYSTWKGRTIYLEDIYV
B3: TRIM55 (parent)
chain: YKSFSKEQQTMDNLEKQLICPICL

Variants of: B1
Test: protein stability index of a GFP-peptide fusion (GPS, HEK-293T) (PSI 1-6); higher = more stable
Details: c terminus: a fixed tail appended
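Also: lentivirally expressed fusions sorted by FACS into six bins by GFP to DsRed ratio, PSI derived from sequencing read proportions per bin multiplied by bin number.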

Protein stability index, by site and new letter:
L23: V 2.62; W 2.55; Y 3.31
E24: A 3.44; C 2.04; D 2.94; F 1.79; G 2.85; H 2.21; I 2; K 2.12; L 2.18; M 2.17; N 2.42; P 3.33; Q 2.38; R 2.11; S 2.22; T 2.3; V 1.97; W 1.91; Y 2.04

Variants of: B2
Test: as above
Details: c terminus: a fixed tail appended

Protein stability index of substitutions, site by site:
G1: C 1.66; E 2.96; F 2.13; H 2.72; I 1.2; L 3.6; M 3.54; R 2.21; S 2.41; Y 3.1
Y2: C 2.61; D 2.06; F 1.06; H 3.91; I 3.75; M 2.92; N 3.27; P 1.91; Q 4.95; R 2.58; S 3.01; V 2.26; W 2.38
G3: C 2.12; D 2.8; E 2.58; F 4.2; H 2.85; I 1.59; K 2.62; P 2.7; R 2.96; S 3.29; Y 2.19
I4: A 3.19; C 3.26; D 2.92; G 1.88; H 2.53; K 2.7; M 3.54; N 3.27; V 1.71; W 2.71
Y5: C 2.85; D 2.62; G 3.41; H 2.42; I 2.59; K 2.61; L 2.15; R 2.39; T 2.53; W 2.09
Y6: A 2.88; C 2.94; E 2.64; F 3.09; L 1.83; Q 3.44; R 3.12
F7: A 2; D 3.03; E 2.37; G 3.36; K 3.88; L 2.92; N 3.37; P 3.4; Q 5.82; R 2.72; S 2.8; V 3.39; W 2.65
I8: A 1.76; C 1.7; D 3.24; E 3.68; F 3.4; H 2.93; L 2.2; Q 1.27; R 3.57; S 3.1; T 4.7; V 2.02; Y 3.28
Y9: C 2.94; D 3.06; G 2.77; I 1.62; L 2.57; M 3.46; N 2.2; P 2.71; R 3.86; S 1.59; T 2.78; V 1.67
S10: C 2.53; E 3.09; M 3.91; N 2.55; P 3.17; Q 2.29; W 2.26; Y 2.76
T11: A 2.97; C 4.22; D 3.32; F 2.43; H 3.48; I 2.78; M 3.99; N 4.08; Q 2.72; R 2.28; S 2.44; V 3.88; W 3.78; Y 2.83
W12: C 2.1; D 2.25; E 2.55; F 2.8; K 2.65; M 4.12; N 3.5; P 2.36; S 4.37; T 2.5; V 3.31
K13: E 3.58; G 2.94; H 2.87; I 2.8; P 1.99; R 3.04; S 2.39; T 2.87; Y 1.48
G14: C 5.03; H 4.09; I 2.04; L 2.47; M 1.94; N 2.71; P 2.33; Q 3.24; R 3.28; S 2.5; T 2.34; V 5.04; W 2.43; Y 3.58
R15: A 4.7; C 3.31; D 2.9; E 3.72; F 4.58; G 2.53; H 2.96; L 3.07; M 3.05; N 2.37; P 2.17; S 2.1; T 3.03; W 3.58
T16: A 3.27; C 2.83; E 2.53; F 3.53; G 3.31; L 3.32; M 3.12; N 1.86; R 1.69; S 3.8; V 3.24; W 2.95
I17: A 3.11; D 3.35; E 2.77; F 3.52; G 2.82; K 3.66; M 1.75; P 2.91; R 1.72; V 2.27; W 2.17; Y 2.1
Y18: A 1.71; C 1.89; F 3.01; H 2.59; I 1.92; K 1.88; M 2.33; S 2.33; T 2.92; V 3.04
L19: F 2.37; G 3.7; H 2.98; I 4.11; N 1.73; S 3.57; Y 4
E20: A 3.56; C 3.04; F 2.84; G 2.26; H 2.91; L 2.1; M 4.05; N 4.06; P 2.91; R 3.97; S 3.32; T 2.4; V 3.13; W 2.35
D21: A 2.28; C 2.34; E 2.34; H 2.67; I 3.08; K 4.17; L 2.9; M 3.04; N 2.74; P 2.44; R 1.47; T 1.75
I22: C 2.41; E 2.92; H 2.55; Q 1.86; S 3.3; Y 2.09
Y23: A 2.89; C 2.65; F 2.37; H 3.07; L 1.08; M 2.71; N 3.18; P 2.43; W 2.35
V24: A 2.62; C 3.63; E 2.6; F 2.91; G 2.6; I 1.48; K 3.94; M 1.63; P 2.3; R 2.39; S 2.83; Y 2.53

Variants of: B3
Test: as above
Details: c terminus: a fixed tail appended

Protein stability index, by site and new letter:
Y1: A 2.5; C 2.7; D 3.46; E 2.48; F 2.02; G 2.35; H 3.12; I 1.99; K 2.68; L 2.94; M 2.5; N 2.48; P 2.7; Q 2.15; R 2.83; S 3.02; T 2.62; V 1.97; W 2.17
K2: A 2.02; C 1.93; D 2.36; E 1.73; F 2.09; G 2.92; H 1.29; I 1.56; L 2.52; M 2.1; N 2.12; P 2.5; Q 1.59; R 1.73; S 2.38; T 1.83; V 2.05; W 1.96; Y 1.95
S3: A 2.02; C 2; D 2.47; E 2.25; F 1.65; G 1.69; H 2.45; I 1.94; K 2.44; L 1.69; M 1.85
